Laboratory results published in patent US20200222444.

Molecular target: Flag-Mettl8 (Flag-tagged human Mettl8, wild type) (UniProt Q9H825)
Sequence (Q9H825 other isoform, or with tags, fused parts or gaps): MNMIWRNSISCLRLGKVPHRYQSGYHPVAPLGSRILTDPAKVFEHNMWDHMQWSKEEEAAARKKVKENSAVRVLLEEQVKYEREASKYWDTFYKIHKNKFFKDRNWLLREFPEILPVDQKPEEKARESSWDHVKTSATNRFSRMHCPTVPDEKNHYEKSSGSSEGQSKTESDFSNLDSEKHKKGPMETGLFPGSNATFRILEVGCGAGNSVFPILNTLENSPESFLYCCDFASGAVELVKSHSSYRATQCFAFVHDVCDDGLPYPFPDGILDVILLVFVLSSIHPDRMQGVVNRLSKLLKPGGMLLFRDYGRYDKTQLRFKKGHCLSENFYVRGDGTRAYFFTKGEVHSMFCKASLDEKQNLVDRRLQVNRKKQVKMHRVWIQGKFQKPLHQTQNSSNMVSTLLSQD

Endogenous ATM
pS/TQ phosphorylation after 10 Gy irradiation (Flag IP, immunoblot): pS/TQ phosphorylation was detected on wild type Mettl8 upon irradiation
